For assay [1], the target named is T1, human CACNG1, cell surface-expressed (human, UniProt Q06432 1-222). Nature of the assay: cell-based or functional assay.
Assay [2] deals with T1, human CACNG1, cell surface-expressed. Kind of assay: cell-based or functional assay. This is another data set of the same source.
Assay [3] has the same target. Kind of assay: cell-based or functional assay. The source holds these as a separate data set.
In assay [4] the target is T2, nanodisc embedded human CACNG1 expressed with a C-terminal PADRE-Flag-His tag (human, UniProt Q06432 1-222).
T2 construct: Membrane protein (gamma-1 subunit of the skeletal muscle L-type calcium channel) in a nanodisc; also called human CACNG1 nanodisc; CACNG1 nanodisc; not shown: C-terminal PADRE-Flag-His tag
Kind of assay: SPR (Biacore T200), 25 C, anti-His-captured human CACNG1 nanodisc, antibody as analyte. As to the method: Equilibrium dissociation constants (KD values) for nanodisc embedded human CACNG1 expressed with a C-terminal PADRE-Flag-His tag (human CACNG1 nanodisc) binding to purified anti-hCACNG1 antibodies were determined using a real-time surface plasmon resonance biosensor technology with a Biacore T200 instrument. The CM5 Biacore sensor surface was derivatized by amine coupling with a monoclonal mouse anti-His antibody (Cytiva; Marlborough, MA). All Biacore binding studies were performed in a buffer composed of 0.01M HEPES, 0.15M NaCl, 1 mM CaCl₂), 0.5 mM MgCl₂, pH 7.4 (HBS-N++ running buffer). Different concentrations of anti-hCACNG1 antibodies (ranging from 300 nM to 12 nM in 5-fold serial dilutions) prepared in HBS-N++ running buffer were injected over the captured human CACNG1 nanodisc at a flow rate of 30 μL/minute. Antibody association was monitored for 2 minutes while dissociation was monitored in HBS-N++ running buffer for 5 minutes. At the end of each cycle, the human CACNG1 nanodisc capture surface was regenerated using three 10 second injections of 10 mM Gly pH1.5. All binding kinetics experiments were performed at 25° C.
A general note: SPR reads the build-up and loss of mass on a sensor chip optically.

The target of assay [5] is T3, mouse CACNG1 on myofibers of wildtype mice (mouse, UniProt O70578 1-223).
T3 construct: whole, on cells; Target inferred from the cells: the wildtype myofibers carry mouse CACNG1, which the CACNG1^Hu/Hu mice have replaced by human CACNG1; also called wildtype (WT) myofibers
T3 sequence (looked up): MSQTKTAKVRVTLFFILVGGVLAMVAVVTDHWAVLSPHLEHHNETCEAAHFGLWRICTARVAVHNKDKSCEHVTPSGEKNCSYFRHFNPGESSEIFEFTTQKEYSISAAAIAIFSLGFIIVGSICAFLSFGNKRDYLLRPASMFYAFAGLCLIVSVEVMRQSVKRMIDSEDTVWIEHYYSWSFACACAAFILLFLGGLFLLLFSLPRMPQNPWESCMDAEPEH
Nature of the assay: immunofluorescence on live single myofibers ex vivo (wildtype mice), fluorescent secondary antibody, confocal imaging. As to the method:
Single myofibers were isolated from either wildtype mice, mice that were homozygous for the deletion of CACNG1 (referred to as CACNG1 knockout mice), or mice that were homozygous for the expression of human CACNG1 in place of mouse CACNG1 (referred to as CACNG1^{Hu/Hu}). The gastrocnemius muscle was removed, collagenase digested, and single myofibers were isolated, washed, and incubated overnight at 37° C. at 5% C02, in DMEM+10% horse serum. […] Myofibers were then washed twice in DMEM+10% horse serum, and subsequently incubated with 10 ug/mL of fluorescent-conjugated secondary antibodies for 30 minutes, washed twice in DMEM+10% horse serum, and then fixed with 4% paraformaldehyde (PFA) for 15 minutes at room temperature. Single fibers were then washed twice with PBS, stained with Hoechst for 5 minutes, washed once more with PBS, then transferred to microscope slides, coverslipped, and imaged using a Zeiss LSM 710 confocal microscope.

T1 sequence (Q06432 whole entry): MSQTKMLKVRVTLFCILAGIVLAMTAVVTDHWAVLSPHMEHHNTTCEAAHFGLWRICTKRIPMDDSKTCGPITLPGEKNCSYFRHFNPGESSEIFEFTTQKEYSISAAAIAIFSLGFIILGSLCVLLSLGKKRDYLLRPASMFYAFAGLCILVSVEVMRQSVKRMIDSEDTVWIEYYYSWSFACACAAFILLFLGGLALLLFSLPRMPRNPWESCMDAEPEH
T2 sequence (Q06432 whole entry): as above

B1: REGN5972-M3004 (antibody, V domains shown)
VH: QVQLVESGGGVVQPGRSLRLSCTASGFTFRSYGMHWVRQAPGKGLEWVSVIWIDGNNIYYADSVKGRFTISRDNSKNTLYLQMDSLRAEDTAVYYCARRLAITSAAPFDYWGQGTLVTVSS
VL: not shown
modifications: N180Q in the constant region (heading of the 2nd table, row 736); linker-payload M3004 (VC-PAB linker, DHT)
Take B1: in assay [1], the “EC50; androgen receptor luciferase reporter (RLU), hCACNG1.AR.Luc LNCaP cells, 72 hours” value was determined as 7.79 nM. The “EC50; androgen receptor luciferase reporter (RLU), hCACNG1.AR.Luc LNCaP cells, 48 hours” value in assay [2] was determined as 6.49 nM. Besides, the “EC50; androgen receptor luciferase reporter (RLU), hCACNG1.AR.Luc LNCaP cells, 24 hours” value in assay [3] worked out at 19 nM.

B2: H4H31265P2/REGN5972 (antibody, V domains shown)
VH: B1 VH
VL: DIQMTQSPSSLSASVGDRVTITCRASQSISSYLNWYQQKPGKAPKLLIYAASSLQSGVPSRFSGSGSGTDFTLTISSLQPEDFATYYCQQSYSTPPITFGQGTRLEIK
notes: also called antibody designation 7
Consider B2, for which the “mAb Bound at 300 nM (RU)” value in assay [4] came to 14 RU. In assay [5], the binding result was “no binding (tested: 100 nM)”.

B3: H1M31941N (antibody, mouse IgG1, kappa, V domains shown)
VH: QVQLVQSGAEVKKPGASVKVSCKASGYAFTTYGITWVRQAPGQGLEWMGWISAYNGNTNYAEKVQGRFTMTTDTSTNTAYMELRSLRSDDTAVYFCARKGHYGSGTYYNPFGFDFWGQGTMVTVSS
VL: EIMLMQSPGTLSLSPGERATLSCRASQSVSSSYLAWYQQKPGQAPRLLIYGASSRATDIPDRFSGSGSGTDFTLTISRLEPEDFAVYFCQQYYGSPWTFGQGTKVEIKR
notes: also called antibody designation 8
Consider B3, for which, in assay [5], the binding result is on record as “no binding (tested: 100 nM)”.

The values above are taken from patent US20260234660A1 (Regeneron, published 2026).
